# B1: Wild-type Staphylococcus aureus D-alanyl carrier protein DltC (natural protein)
# chain: MEFREQVLNLLAEVAENDIVKENPDVEIFEEGIIDSFQTVGLLLEIQNKLDIEVSIMDFDRDEWATPNKIVEALEELR
# modifications: 4'-phosphopantetheine (Ppant) on Ser36 (co-expressed with AcpS to produce Ppant-attached SaDltC)
# Target: Staphylococcus aureus DltA (D-alanine-D-alanyl carrier protein ligase) (Staphylococcus aureus) (UniProt Q2FZW6)
# Chain of UniProt Q2FZW6 (Q2FZW6 whole entry): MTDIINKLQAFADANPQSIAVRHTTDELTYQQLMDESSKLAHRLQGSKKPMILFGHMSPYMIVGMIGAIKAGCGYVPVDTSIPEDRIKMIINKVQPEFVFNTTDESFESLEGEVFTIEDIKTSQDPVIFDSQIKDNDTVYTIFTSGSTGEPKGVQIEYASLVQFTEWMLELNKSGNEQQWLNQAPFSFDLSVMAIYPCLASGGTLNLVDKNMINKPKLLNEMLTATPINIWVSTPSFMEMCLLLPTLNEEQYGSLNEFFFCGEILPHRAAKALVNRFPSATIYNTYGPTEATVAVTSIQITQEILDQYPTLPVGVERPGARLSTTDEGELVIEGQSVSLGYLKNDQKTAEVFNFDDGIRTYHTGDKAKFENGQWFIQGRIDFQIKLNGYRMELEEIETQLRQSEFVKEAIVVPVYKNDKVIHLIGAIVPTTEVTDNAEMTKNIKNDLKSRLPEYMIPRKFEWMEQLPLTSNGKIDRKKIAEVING
binder,measurement,value
B1,"SaDltA adenylation activity (pyrophosphate detection assay, initial rates; 5 uM SaDltA with 300 uM SaDltC, 37 °C), increase over SaDltA alone",22.3 fold

# From PMC12838833
